Laboratory results published in US20210130437A1.
Each block holds one substance with its values, some of them ahead of it.

Key:
[1] = molecular target: TIGIT (Homo sapiens (Human)) (UniProt Q495A1); assay: flow cytometry, TIGIT-expressing cells, secondary reagent alone
[2] = molecular target: CD226 (Homo sapiens (Human)) (UniProt Q15762); assay: flow cytometry, CD226-expressing cells, secondary reagent alone
CD96 [3] = molecular target: T1, CD96 (UniProt P40200); assay: flow cytometry, CD96-expressing cells, secondary reagent alone
T1 sequence (looked up): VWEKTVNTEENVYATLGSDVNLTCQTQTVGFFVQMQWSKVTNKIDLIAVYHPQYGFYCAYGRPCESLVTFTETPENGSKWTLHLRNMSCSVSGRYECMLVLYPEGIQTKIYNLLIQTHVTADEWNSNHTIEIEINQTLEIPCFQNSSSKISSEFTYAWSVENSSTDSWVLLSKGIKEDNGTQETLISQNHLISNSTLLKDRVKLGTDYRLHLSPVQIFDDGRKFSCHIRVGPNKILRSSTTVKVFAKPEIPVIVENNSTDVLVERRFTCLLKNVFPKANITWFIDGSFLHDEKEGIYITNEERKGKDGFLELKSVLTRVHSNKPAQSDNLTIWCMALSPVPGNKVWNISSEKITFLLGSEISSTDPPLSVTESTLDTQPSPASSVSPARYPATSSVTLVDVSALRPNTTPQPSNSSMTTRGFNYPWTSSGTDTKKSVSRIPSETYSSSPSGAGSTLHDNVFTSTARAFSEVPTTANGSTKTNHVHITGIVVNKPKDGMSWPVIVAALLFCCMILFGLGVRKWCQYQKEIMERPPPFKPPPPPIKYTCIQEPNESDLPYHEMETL

CD112R [4] = molecular target: CD112R (UniProt Q6DKI7); assay: flow cytometry, CD112R-expressing cells, secondary reagent alone
Chain of CD112R (Q6DKI7 whole entry, the tested form may be a part): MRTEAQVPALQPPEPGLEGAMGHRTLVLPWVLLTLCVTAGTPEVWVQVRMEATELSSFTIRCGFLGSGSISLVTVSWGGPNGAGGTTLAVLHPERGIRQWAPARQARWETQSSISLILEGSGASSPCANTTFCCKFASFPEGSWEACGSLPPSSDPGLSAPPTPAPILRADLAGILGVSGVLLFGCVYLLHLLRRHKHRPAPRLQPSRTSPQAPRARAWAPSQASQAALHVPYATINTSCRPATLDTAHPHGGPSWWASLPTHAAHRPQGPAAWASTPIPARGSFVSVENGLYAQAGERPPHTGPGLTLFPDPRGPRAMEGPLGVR

CD96 [5] = molecular target: T1, CD96; assay: flow cytometry, 100 nM Fc fusion on cells expressing CD96
[6] = molecular target: human PD-1 and human TIGIT co-expressed on Jurkat cells (Jurkat/PD-1/TIGIT cells) (human); assay: flow cytometry, Jurkat/PD-1/TIGIT cells
Chain of human PD-1 and human TIGIT co-expressed on Jurkat cells (Jurkat/PD-1/TIGIT cells) (human) (chain, as listed by the source, chain 1 of 2): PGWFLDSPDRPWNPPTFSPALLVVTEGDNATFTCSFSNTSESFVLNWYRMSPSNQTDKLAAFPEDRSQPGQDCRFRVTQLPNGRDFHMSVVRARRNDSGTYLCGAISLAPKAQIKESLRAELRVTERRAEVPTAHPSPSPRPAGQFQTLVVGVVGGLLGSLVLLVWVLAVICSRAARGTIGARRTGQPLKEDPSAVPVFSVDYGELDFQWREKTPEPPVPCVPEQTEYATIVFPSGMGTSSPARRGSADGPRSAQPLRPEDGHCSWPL
Chain of human PD-1 and human TIGIT co-expressed on Jurkat cells (Jurkat/PD-1/TIGIT cells) (human) (chain, as listed by the source, chain 2 of 2): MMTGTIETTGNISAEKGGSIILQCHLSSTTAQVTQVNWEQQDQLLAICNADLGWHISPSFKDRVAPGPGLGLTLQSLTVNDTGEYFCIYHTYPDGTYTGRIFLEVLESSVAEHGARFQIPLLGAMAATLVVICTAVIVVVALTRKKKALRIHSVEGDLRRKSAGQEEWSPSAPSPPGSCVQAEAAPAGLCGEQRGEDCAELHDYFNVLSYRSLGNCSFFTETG

[7] = molecular target: human TIGIT expressed on cells (Jurkat/TIGIT cells) (human) (UniProt Q495A1); assay: flow cytometry, Jurkat/TIGIT cells
Chain of human TIGIT expressed on cells (Jurkat/TIGIT cells) (human) (Q495A1 22-244): as the sequence (chain, as listed by the source, chain 2 of 2) above

[8] = molecular target: human PD-1 expressed on cells (Jurkat/PD-1 cells) (human) (UniProt Q15116); assay: flow cytometry, Jurkat/PD-1 cells
Chain of human PD-1 expressed on cells (Jurkat/PD-1 cells) (human) (Q15116 21-288): as the sequence (chain, as listed by the source, chain 1 of 2) above

[9] = molecular target: rB7H6.Fc (recombinant B7-H6 Fc fusion protein, R&D Systems) (human) (UniProt Q68D85); assay: flow cytometry of yeast-displayed parental NKp30 stained with […] rB7H6.Fc
Chain of rB7H6.Fc (recombinant B7-H6 Fc fusion protein, R&D Systems) (human) (Q68D85 25-262 limits assumed): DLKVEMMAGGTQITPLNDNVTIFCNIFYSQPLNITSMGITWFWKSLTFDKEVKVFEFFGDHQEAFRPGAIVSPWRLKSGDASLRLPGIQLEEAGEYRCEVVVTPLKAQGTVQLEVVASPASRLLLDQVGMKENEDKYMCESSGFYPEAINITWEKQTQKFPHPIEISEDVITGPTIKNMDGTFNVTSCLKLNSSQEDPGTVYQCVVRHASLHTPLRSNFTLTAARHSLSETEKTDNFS

CD112R [10] = molecular target: CD112R (UniProt Q6DKI7); assay: flow cytometry, CD112R-expressing cells, 100 nM
[11] = molecular target: PD-1 stably expressed on Jurkat/IL-2 reporter cells (Jurkat/PD-1) (human) (UniProt Q15116); assay: cell-based or functional assay
Chain of PD-1 stably expressed on Jurkat/IL-2 reporter cells (Jurkat/PD-1) (human) (Q15116 25-288): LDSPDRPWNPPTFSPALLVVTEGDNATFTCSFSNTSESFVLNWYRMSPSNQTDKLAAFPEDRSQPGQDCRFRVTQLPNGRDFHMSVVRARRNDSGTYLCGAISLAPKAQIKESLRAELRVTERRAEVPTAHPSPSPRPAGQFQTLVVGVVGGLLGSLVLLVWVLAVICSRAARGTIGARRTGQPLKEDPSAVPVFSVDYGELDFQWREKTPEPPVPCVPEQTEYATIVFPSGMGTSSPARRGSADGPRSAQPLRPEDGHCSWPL

Chain of TIGIT (Homo sapiens (Human)) (Q495A1 22-244): as the sequence (chain, as listed by the source, chain 2 of 2) above
Chain of CD226 (Homo sapiens (Human)) (Q15762 19-336): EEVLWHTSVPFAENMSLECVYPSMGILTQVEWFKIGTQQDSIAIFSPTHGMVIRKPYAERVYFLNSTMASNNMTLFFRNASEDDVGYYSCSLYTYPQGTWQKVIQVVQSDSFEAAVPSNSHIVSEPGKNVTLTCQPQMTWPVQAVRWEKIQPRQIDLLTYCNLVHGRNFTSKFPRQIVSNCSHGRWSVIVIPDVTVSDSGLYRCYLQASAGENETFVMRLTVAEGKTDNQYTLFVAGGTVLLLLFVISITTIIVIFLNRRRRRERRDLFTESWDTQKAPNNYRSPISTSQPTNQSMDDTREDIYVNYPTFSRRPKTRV

Substance: Anti-hFc PE (antibody)
MFI at 20 nM [1]: 1140
MFI at 20 nM [2]: 1010
MFI at 20 nM (CD96 [3]): 1060
MFI at 20 nM (CD112R [4]): 1010

Substance: Fc Control (heterodimer) (from UniProt P0DOX5 218-449; P0DOX5 218-449)
MFI at 6.25 nM [6]: 48 MFI

Substance: Human IgG (irrelevant Ig control) (antibody)
MFI at 6.25 nM [7]: 48 MFI
MFI at 6.25 nM [6]: 41 MFI
Fold increase over wildtype PD-L1 IgV-Fc [8]: 0 fold
MFI at 6.25 nM [8]: 41 MFI
MFI at 50 nM [8]: 198 MFI

Substance: Wild Type CD155 full ECD Fc (from UniProt P15151 21-343) (Fc fusion)
MFI at 6.25 nM [6]: 249 MFI

Substance: parental NKp30 strain (wild-type NKp30 IgC-like domain displayed on yeast) (from UniProt O14931 19-134) (receptor)
MFI [9]: 90

Substance: variant CD112 IgV-Fc Y33H, A112V, S118Y (Fc fusion)
MFI at 100 nM (CD112R [10]): 2350

Substance: variant PD-L2 IgV-Fc I13V,H15Q,T47A,E58G,S67L,Q82R,V89D (Fc fusion)
Fold increase over wildtype PD-L2 IgV-Fc (IFN gamma, MLR) [11]: 0.61 fold
IFN gamma levels pg/mL (MLR) [11]: 836 pg/mL

Continued, values first:

MFI at 100 nM (CD96 [5]): 2850
Substance: CD112 variant IgV-Fc fusion V19A, N47K, N106Y, K116E, S118Y

MFI at 6.25 nM [6]: 66 MFI
Substance: Fc Control (homodimer) (from UniProt P0DOX5 218-449)

Fold increase over wildtype PD-L1 IgV-Fc [8]: 15.4 fold
MFI at 50 nM [8]: 80500 MFI
Substance: PD-L1 variant IgV-Fc I20L/K28E/D43G/N45D/V58A/Q89R (Fc fusion)

MFI at 6.25 nM [6]: 314 MFI
Substance: Wild Type PD-L2 full ECD Fc (from UniProt Q9BQ51 20-220) (Fc fusion)

MFI at 100 nM (CD112R [10]): 2050
Substance: variant CD112 IgV-Fc R12W, Y33H, Q79R, V101M, A112V (Fc fusion)

MFI at 6.25 nM [6]: 20300 MFI
Substance: variant PD-L2 IgV-Fc H15Q/T47A/K65R/S67L/Q82R/V89D (Fc fusion)
